Data published in US20070184522A1, “Cell death modulation via antagonists of Fasl and Fas activation” (University of Pittsburgh of the Commonwealth System of …, priority 2004, published 2007).

What was measured:
[1] = tested on: Caspase 3 activation in Jurkat cells; assay: Cleaved Caspase 3 Western blot in apoptotic Jurkat cells; assay type: cell-based, human; details: Fas-ligand
Method: For FIG. 4a, Jurkat cells (1.5×10^5) were overnight treated in triplicate with 5 ng/ml of crosslinked human Fas ligand with or without 5 μg/ml of recombinant AlphaMet or 1 μg/ml of the indicated polypeptides. Percent apoptosis was determined by Trypan Blue staining using a hemocytometer. The data are representative and were repeated at least four times. […] The 17 kDa fragment of cleaved Caspase 3 is visualized by this antibody. The blot was reprobed for β-actin as a loading control. For FIG. 4c, serum deprived Hepa 1-6 cells (3×10^5) were overnight treated with 1 μg/ml of crosslinked mouse Fas ligand with or without AlphaMet or the indicated polypeptide. Media were collected and centrifuged to pellet the dead cells. […] The data in FIG. 4c represents three independent experiments.
To provide biochemical evidence that AlphaMet inhibited FasL-mediated apoptosis, the activation of Caspase 3, a down stream executioner in Fas mediated apoptosis, was analyzed in apoptotic Jurkat cells.

[2] = biological target: T1, Fas-Fc (extracellular part of Fas) (Mus musculus, UniProt P25446); assay: Fas-Fc pull down assay with protein-A agarose; assay type: binding
T1 construct: purchased R&D
T1 sequence (P25446 22-169 limits assumed): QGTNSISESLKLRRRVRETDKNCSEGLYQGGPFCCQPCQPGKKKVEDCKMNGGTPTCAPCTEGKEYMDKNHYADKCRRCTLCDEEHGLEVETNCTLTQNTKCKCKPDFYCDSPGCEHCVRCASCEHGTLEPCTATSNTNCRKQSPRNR
Source text: The Met alpha but not beta chain binds to Fas (FIG. 1a). Various regions of the mouse Met cDNA corresponding to the alpha chain or the extra-cellular portion of the Met beta chain were cloned into expression vectors (pCRT7 TOPO/AlphaMet or pCRT7 TOPO/beta chain) and subjected to in vitro transcription/translation by a rabbit reticolucyte lysate translation system. Empty vector was included in each experiment as a control. The expressed proteins were labeled with ^35S-Methionine. Pull down assays were performed using Fas-Fc, a chimeric molecule which lacks the interacellular cytoplasmic domain and protein-A agarose as described in Wang et al., 2002. FIG. 1b is a schematic presentation of the Met alpha chain and its mutant version used to map the region interacting with Fas. The C-terminus of each construct contains a hexa-Histidine tag for ease of detection. Start cordon ATG was added to the N-terminally truncated constructs. The YLGA (SEQ ID NO:1) motif mutation was prepared by PCR, in which YLGA (SEQ ID NO:1) was replaced by DHER (SEQ ID NO:24). […] In vitro translated ^35S-methionine labeled truncated/mutated AlphaMet proteins were pulled down with 2 μg of Fas-Fc or the same amount of IgG. Lane 1: 10% of AlphaMet input; Lane 2: AlphaMet with IgG control; Lanes 3 to 8: pull down of various truncated AlphaMet proteins; N-terminal 1-106 residues; C-terminal truncated, residues 1-210; alpha chain, residues 1-306; alpha chain with transmembrane domain, 1-338; N-terminally truncated alpha chain, residues 100-306; and N-terminally truncated with addition of the transmembrane domain 100-338, respectively. FIG. 1d depicts the amino acid sequence alignment of alpha chain with FasL, determined using the CLUSTALW, SIM+LALNVIEW, and ALIGN at ExPASy Proteomic Tools (available on the internet at us.expresly.org/tools). The numbers indicate the amino acid residues of the indicated protein. […] Recombinant His-tagged AlphaMet or its mutant version were expressed in E. coli, purified with chromatography, and subjected to Fas-Fc (lanes labeled Fas) or control IgG pull down experiments, and detected by Western blot using anti-His antibody that recognizes C-terminal His. This antibody also recognizes the Fas-Fc which is also tagged at the C-terminus by His. […] Purified recombinant AlphaMet protein (approximately 10 μg) was mixed with Hepa 1-6 cells or Jurkat cell lysates and subjected to immunoprecicitation using anti-Fas antibody or control IgG followed by Western blot using anti His-tag antibody as a probe. […] After washing the wells, anti-human […]-HRP conjugates (1:20,000) were added to detect the bound Fas-Fc using TMD dye and the OD value was determined at a wavelength of 450 nm. […]

Fas binding in Fas-Fc pull down ([2]; in vitro translated 35S-labeled proteins, autoradiography, listed as Met alpha chain): bound specifically to the Fas molecule
Fas binding in Fas-Fc pull down ([2]; in vitro translated 35S-labeled proteins, autoradiography, listed as full length AlphaMet): bound Fas very efficiently
Fas binding in Fas-Fc pull down ([2]; recombinant His-tagged proteins expressed and purified in E. coli, Western blot anti-His): bound avidly
B1: alpha subunit of Met (AlphaMet), amino acid residues 1 to 306, His-tagged (receptor, mouse)
chain: MKAPTVLAPGILVLLLSLVQRSHGECKEALVKSEMNVNMKYQLPNFTAETPIQNVVLHGHHIYLGATNYIYVLNDKDLQKVSEFKTGPVLEHPDCLPCRDCSSKANSSGGVWKDNINMALLVDTYYDDQLISCGSVNRGTCQRHVLPPDNSADIQSEVHCMFSPEEESGQCPDCVVSALGAKVLLSEKDRFINFFVGNTINSSYPPGYSLHSISVRRLKETQDGFKFLTDQSYIDVLPEFLDSYPIKYIHAFESNHFIYFLTVQKETLDAQTFHTRIIRFCSVDSGLHSYMEMPLECILTEKRRKRHHHHHH
Caspase 3 activation (17 kDa cleaved form) [1]: markedly reduced
